Measurements published in article PMC8986097, “SUMO-mediated recruitment allows timely function of the Yen1 nuclease in mitotic cells” (PLoS Genetics, 2022).

B1: Yen1-1xHA, wild-type, purified [S. cerevisiae] / GST-Smt3 [S. cerevisiae] (parent complex)
chain 1: MGVSQIWEFLKPYLQDSRIPLRKFVIDFNKSQKRAPRIAIDAYGWLFECGFIQNIDISARSRSRSRSPTRSPRDSDIDSSQEYYGSRSYTTTGKAVINFISRLKELLSLNVEFLLVFDGVMKPSFKRKFNHEQNATTCDDEKEYYSSWEQHVKNHEVYGNCKGLLAPSDPEFISLVRKLLDLMNISYVIACGEGEAQCVWLQVSGAVDFILSNDSDTLVFGGEKILKNYSKFYDDFGPSSITSHSPSRHHDSKESFVTVIDLPKINKVAGKKFDRLSLLFFSVLLGADYNRGVKGLGKNKSLQLAQCEDPNFSMEFYDIFKDFNLEDLTSESLRKSRYRLFQKRLYLYCKDHSVELFGRNYPVLLNQGSFEGWPSTVAIMHYFHPIVQPYFDEEVLSDKYINMAGNGHYRNLNFNELKYFLQSLNLPQISSFDKWFHDSMHEMFLLREFLSIDESDNIGKGNMRITEEKIMNIDGGKFQIPCFKIRYTTFLPNIPISSQSPLKRSNSPSRSKSPTRRQMDIMEHPNSLWLPKYLIPQSHPLVIQYYETQQLIQKEKEKKGKKSNKSRLPQKNNLDEFLRKHTSPIKSIGKVGESRKEILEPVRKRLFVDTDEDTSLEEIPAPTRLTTVDEHSDNDDDSLIFVDEITNSQSVLDSSPGKRIRDLTQDEQVDVWKDVIEISPIKKSRTTNAEKNPPESGLKSRSSITINARLQGTKMLPPNLTAPRLEREHSSVLDQLVTDAQDTVDRFVACDSDSSSTIE
chain 2: MSDSEVNQEAKPEVKPEVKPETHINLKVSDGSSEIFFKIKKTTPLRRLMEAFAKRQGKEMDSLRFLYDGIRIQADQTPEDLDMEDNDIIEAHREQIGGATY

Variants of: B1
Experiment: pull-down (GST-Smt3 on Glutathione resin, immuno-blot anti-HA); 1/10 inputs, 1/4 elution; parent: 1
chain 1 D635A, chain 1 D636A, chain 1 D637A was tested, and the ratio to parent was 0.9.
With chain 1 V675A, chain 1 E677A the ratio to parent was 0.9.
